The text below walks through data of patent US20150337051A1 (MORPHOTEK, published 2015).

In assay [1] the target is T1, TEM-1 in a native state on aortic smooth muscle cells (AoSMC) (UniProt Q9HCU0).
T1 sequence (looked up): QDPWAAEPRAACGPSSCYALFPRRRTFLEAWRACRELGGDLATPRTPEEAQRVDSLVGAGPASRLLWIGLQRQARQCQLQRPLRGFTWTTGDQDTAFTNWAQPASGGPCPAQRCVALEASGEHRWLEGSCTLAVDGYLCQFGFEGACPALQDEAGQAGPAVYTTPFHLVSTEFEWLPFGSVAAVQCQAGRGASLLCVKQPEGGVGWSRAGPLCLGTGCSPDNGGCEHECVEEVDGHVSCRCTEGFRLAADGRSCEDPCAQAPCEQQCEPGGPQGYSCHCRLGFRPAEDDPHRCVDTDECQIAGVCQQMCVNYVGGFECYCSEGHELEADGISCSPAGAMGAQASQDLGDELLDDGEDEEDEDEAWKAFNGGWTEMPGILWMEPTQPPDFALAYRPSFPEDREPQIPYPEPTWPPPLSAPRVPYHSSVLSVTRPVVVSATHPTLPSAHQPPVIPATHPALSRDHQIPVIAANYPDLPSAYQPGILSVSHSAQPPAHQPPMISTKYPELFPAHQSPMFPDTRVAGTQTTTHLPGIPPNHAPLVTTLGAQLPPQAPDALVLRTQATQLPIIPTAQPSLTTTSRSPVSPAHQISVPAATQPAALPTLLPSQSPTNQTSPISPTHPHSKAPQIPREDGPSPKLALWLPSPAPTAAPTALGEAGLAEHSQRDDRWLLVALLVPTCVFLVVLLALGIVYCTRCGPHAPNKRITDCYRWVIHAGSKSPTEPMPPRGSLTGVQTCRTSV
Description: flow cytometry on AoSMC, primary antibody then FITC secondary; cells only 2.5, secondary only 3.9. (Flow cytometry measures light scatter and fluorescence of single cells or particles in a stream.)

Assay [2] concerns the target T2, recombinant CHO TEM-1 Fc fusion protein (UniProt Q9HCU0).
T2 sequence (looked up): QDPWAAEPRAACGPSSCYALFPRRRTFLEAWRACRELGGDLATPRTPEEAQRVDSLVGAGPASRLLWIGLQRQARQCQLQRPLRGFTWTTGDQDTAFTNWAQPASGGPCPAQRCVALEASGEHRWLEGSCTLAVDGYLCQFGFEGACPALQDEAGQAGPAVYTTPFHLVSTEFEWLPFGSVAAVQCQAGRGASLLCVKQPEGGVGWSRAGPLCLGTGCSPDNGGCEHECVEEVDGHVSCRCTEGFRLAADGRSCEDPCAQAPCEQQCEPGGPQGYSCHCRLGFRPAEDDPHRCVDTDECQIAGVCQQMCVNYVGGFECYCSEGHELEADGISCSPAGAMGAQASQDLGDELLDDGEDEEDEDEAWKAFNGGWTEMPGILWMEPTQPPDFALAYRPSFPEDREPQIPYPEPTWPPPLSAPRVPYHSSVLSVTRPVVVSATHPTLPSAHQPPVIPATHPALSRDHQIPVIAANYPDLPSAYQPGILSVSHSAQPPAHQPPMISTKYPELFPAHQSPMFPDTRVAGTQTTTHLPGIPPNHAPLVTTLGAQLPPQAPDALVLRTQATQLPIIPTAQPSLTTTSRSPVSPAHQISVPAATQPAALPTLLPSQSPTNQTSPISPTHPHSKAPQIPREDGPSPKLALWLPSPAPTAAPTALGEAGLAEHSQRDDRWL
Description: ECL sandwich, competition: biotin-9G5 capture, sulfo-TAG-15F8 detection; MORAb-004 spike 50 µg/mL, TEM-1-Fc QC 10 ng/mL; recovery at 0 µg/mL MORAb-004: 105.

In assay [3] the target is T2, recombinant CHO TEM-1 Fc fusion protein. Description: ECL sandwich, competition: biotin-9G5 capture, sulfo-TAG-15F8 detection; MORAb-004 spike 3.125 µg/mL, TEM-1-Fc QC 10 ng/mL; recovery at 0 µg/mL MORAb-004: 105.
For assay [4] the target is unchanged. In words: ECL sandwich, competition: biotin-9G5 capture, sulfo-TAG-15F8 detection; MORAb-004 spike 6.25 µg/mL, TEM-1-Fc QC 0.4 ng/mL; recovery at 0 µg/mL MORAb-004: 109.
Assay [5] has the same target. Description: ECL sandwich, competition: biotin-9G5 capture, sulfo-TAG-15F8 detection; MORAb-004 spike 1.5625 µg/mL, TEM-1-Fc QC 0.08 ng/mL; recovery at 0 µg/mL MORAb-004: 114.

B1: MORAb-004 (antibody, INN chains, looked up, V domains shown)
VH: QVQLQESGPGLVRPSQTLSLTCTASGYTFTDYVIHWVKQPPGRGLEWIGYINPYDDDTTYNQKFKGRVTMLVDTSSNTAYLRLSSVTAEDTAVYYCARRGNSYDGYFDYSMDYWGSGTPVTVSS
VL: DIQMTQSPSSLSASVGDRVTITCRASQNVGTAVAWLQQTPGKAPKLLIYSASNRYTGVPSRFSGSGSGTDYTFTISSLQPEDIATYYCQQYTNYPMYTFGQGTKVQIK
For B1, the Geometric mean of resulting FACS plot in assay [1] turned out to be 103. For the same molecule, the % Recovery of TEM-1 QCs spiked with MORAb-004 in assay [2] came to 87%; in assay [3], 95.8%; in assay [4], 98%; in assay [5] it was 103%.
